Data on 4 molecules can be found in publication PMC8904041, “High-Level Production of Isoleucine and Fusel Alcohol by Expression of the Feedback Inhibition-Insensitive Threonine Deaminase in Saccharomyces cerevisiae” (Applied and Environmental Microbiology, 2022).

For data set [1], the target named is T1, threonine deaminase (Ilv1), wild-type (Saccharomyces cerevisiae, UniProt P00927).
T1 sequence (P00927 46-576): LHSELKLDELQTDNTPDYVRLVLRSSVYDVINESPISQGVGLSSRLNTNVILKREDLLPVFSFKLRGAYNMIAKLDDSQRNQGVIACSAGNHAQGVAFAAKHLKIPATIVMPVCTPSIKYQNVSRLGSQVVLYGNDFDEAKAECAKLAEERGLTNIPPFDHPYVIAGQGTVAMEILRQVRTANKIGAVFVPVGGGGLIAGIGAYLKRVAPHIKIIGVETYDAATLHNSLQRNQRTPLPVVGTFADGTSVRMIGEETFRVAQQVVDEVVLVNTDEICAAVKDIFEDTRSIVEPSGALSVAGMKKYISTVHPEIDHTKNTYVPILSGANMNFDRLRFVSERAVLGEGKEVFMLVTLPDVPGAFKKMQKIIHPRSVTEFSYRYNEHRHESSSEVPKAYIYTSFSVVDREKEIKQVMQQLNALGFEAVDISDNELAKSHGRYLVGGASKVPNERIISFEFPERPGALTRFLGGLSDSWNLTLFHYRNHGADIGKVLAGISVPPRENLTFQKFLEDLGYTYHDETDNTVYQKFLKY
Nature of the data set: biochemical. To be noted: read-out: GDH-coupled TD activity assay with purified Ilv1; 1.8-fold activation at 5 mM Va.

Data set [2] concerns the target T1, threonine deaminase (Ilv1), wild-type. Nature of the data set: GDH-coupled NADH oxidation assay of TD activity with purified recombinant Ilv1. In kind it is biochemical.
Substrate in the data set “purified protein”: C[C@@H](O)[C@H](N)C(=O)O
Nature of the data set: purified protein. In kind it is biochemical, Saccharomyces cerevisiae. To be noted: pyridoxal-5'-phosphate.

Substitutions are numbered along the chain they refer to. Names may count otherwise.

Turning to `CC(C)[C@H](N)C(=O)O` [valine], the fold induction at 5000 µM in data set [1] came to 1.8.

Turning to `CC[C@H](C)[C@H](N)C(=O)O` [isoleucine], in data set [2], the IC50 – broadly, the midpoint of a concentration-inhibition curve – was 270 ± 9 µM.

B1: threonine deaminase (Ilv1), wild-type (Saccharomyces cerevisiae S288C) (protein)
chain: T1 sequence (P00927 46-576)
notes: recombinant Ilv1 lacking the N-terminal 45 amino acid residues (mitochondrial localization signal), expressed in E. coli BL21(DE3)
On to B1, for which, in “purified protein”, the K0.5 was determined as 40 ± 2.2 mM; the kcat (usually the maximal rate divided by the concentration of active sites) stood at 75 ± 4.1 s⁻¹; the kcat/Km – broadly, the turnover number divided by the Michaelis constant – worked out at 1870 M⁻¹ s⁻¹.

B2: threonine deaminase (Ilv1), H480Y variant (Saccharomyces cerevisiae S288C; H480Y) (protein)
chain: T1 sequence (P00927 46-576) with H435Y
notes: as for B1
As to B2, in “purified protein”, the K0.5 is 42 ± 2.4 mM, the kcat turned out to be 75 ± 3.6 s⁻¹ and the kcat/Km is 1780 M⁻¹ s⁻¹.
